Measured values published in article PMC8917853, “Synthesis and evaluation of ^99mTc-DOTA-ARA-290 as potential SPECT tracer for targeting cardiac ischemic region” (Iranian Journal of Basic Medical Sciences, 2021).
Residues, ends and D or L forms follow the SMILES beside them. *: point of attachment. DOTA = O=C(O)CN1CCN(CC(=O)O)CCN(CC(=O)*)CCN(CC(=O)O)CC1; X1 = CN(C)c1ccc(/N=N/c2ccc(C(=O)*)cc2)cc1

What was measured:
in vitro = conditions: human, fresh human serum
Procedure: (§1) As an in vitro stability evaluation, radiolabeled peptides (specific activity= 18.5 MBq/nmol) were added to sodium chloride 0.9 % isotonic solution ([24]). After incubation at ambient temperature, samples were taken out at 0.06, 0.5, 1, 2, 4, and 6 hr. The radiochemical purity of the mixture was investigated by a TLC stripe. To survey biostability, 100 μl of the labeled compound was added to fresh human serum (1 ml) and incubated (37 °C, 5% CO2) at different time points (4, 30, 60, 120, 240, and 360 min). 100 μl aliquots of serum samples were then incubated with 100 μl of ethanol. Samples were centrifuged at 5000 rpm for 5 min at 37 °C and 20 µl supernatant was removed to assess the degradation of ^99mTc labeled peptide by TLC.

[1] = sodium chloride 0.9%, ambient temperature, up to 6 hr, TLC, specific activity 18.5 MBq/nmol, mean n=3
Procedure: as §1

cardiac ischemic region = assay: Planar SPECT scintigraphy in ischemic and normal rats; type: in vivo, rat; conditions: 200 MBq
Procedure: 30 and 90 min post-injection of ^99mTc-DOTA-(Lys-Dabcyl^6,Phe^7)-ARA-290 (200 MBq) into ischemic and normal rats, planar images were captured by a dual-head SPECT system (E.cam, Siemens, Germany) that was arranged with low energy high-resolution collimators, a 128*128 matrix size, and a 20% energy window set at 140 keV ([29]).

[2] = target: T1, EPOR-BcR receptor on H9c2 myocardial cells (Rattus norvegicus, UniProt Q07303+Q78ZF5); assay: In vitro hypoxia test: binding to hypoxic vs normoxic H9c2 myocardial cells; type: cell-based; conditions: for binding to hypoxic cells relative to normoxic cells: H9c2 cells, 250 pmol radiopeptide, 37 °C, triplicate
T1 construct: endogenous in cells; host or cells: H9c2 myocardial cells (hypoxic vs normoxic culture)
T1 sequence (Q07303 25-507): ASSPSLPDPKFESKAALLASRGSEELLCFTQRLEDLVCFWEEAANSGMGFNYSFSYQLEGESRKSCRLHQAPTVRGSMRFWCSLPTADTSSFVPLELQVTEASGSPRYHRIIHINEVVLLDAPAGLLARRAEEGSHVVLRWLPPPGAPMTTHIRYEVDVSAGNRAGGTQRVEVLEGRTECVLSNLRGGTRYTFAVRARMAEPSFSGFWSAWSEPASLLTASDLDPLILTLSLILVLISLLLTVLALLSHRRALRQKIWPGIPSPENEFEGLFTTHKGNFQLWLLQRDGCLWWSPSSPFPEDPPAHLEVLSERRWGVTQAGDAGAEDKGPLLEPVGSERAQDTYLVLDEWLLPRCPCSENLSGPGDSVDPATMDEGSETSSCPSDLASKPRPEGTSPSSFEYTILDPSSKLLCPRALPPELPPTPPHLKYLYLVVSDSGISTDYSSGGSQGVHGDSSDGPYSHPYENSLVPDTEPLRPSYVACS
T1 sequence (Q78ZF5 29-896): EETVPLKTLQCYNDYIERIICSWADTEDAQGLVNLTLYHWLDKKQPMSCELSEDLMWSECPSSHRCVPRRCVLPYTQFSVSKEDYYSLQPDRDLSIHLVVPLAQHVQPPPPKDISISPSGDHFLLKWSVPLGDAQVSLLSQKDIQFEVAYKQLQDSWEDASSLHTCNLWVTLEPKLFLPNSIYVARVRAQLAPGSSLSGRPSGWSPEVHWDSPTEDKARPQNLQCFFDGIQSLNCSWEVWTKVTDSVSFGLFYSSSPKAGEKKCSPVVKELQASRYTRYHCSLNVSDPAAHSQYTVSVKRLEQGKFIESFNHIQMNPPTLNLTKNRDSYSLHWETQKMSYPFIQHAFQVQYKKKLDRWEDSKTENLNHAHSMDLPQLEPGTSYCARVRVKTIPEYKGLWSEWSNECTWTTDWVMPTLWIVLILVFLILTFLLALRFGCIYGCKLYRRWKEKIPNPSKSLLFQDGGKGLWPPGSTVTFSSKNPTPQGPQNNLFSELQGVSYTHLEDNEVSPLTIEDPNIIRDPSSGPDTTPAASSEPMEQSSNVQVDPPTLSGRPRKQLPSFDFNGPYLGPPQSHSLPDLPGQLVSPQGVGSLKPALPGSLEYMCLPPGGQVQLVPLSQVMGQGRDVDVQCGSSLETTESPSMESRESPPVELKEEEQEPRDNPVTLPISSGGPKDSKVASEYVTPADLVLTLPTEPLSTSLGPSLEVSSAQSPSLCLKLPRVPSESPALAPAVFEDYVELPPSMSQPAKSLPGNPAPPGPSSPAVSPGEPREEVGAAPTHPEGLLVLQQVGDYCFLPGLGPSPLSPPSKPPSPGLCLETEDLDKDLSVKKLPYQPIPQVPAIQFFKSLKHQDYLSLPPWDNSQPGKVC
Procedure: H9c2 myocardial cells were separated into three groups. The normoxic control group (negative EPOR-BcR receptor) was cultured in a normoxic (20% O2) culture medium. Hypoxic group (positive EPOR-BcR receptor) was cultured in a different time interval (1-4 hr) hypoxic culture condition (5% CO2 and 2% O2) and blocking test (specific binding assay) in the hypoxic condition. […] The cells for triplicate were placed inside confocal plates (Costar) at a density of 1 × 10^5 per well, then treated with almost 250 pmol of ^99mTc-DOTA-(Lys-Dabcyl^6,Phe^7)-ARA-290 subject to 0.025 MBq at 37 °C. Incubation was disrupted with 1 ml of chilled PBS. Afterward, the cells were separated by […] to measure the cell-bound level of ^99mTc-DOTA-(Lys-Dabcyl^6,Phe^7)-ARA-290 by a scintillator. EPOR-BcR receptor blocking was done by using 50-fold extra of the unlabeled peptide in 30 min before the injection of the labeled peptide.

in vivo = assay: in vivo
Procedure: To study ischemia-induced myocardial injuries, male Wistar rats weighing 200~250 gr were sorted into three groups of four (n=4): (1) normal group, (2) Ischemic group, and (3) sham group. The rats were anesthetized by intraperitoneal (IP) administration of 3 % pentobarbital sodium (60 mg/kg). Positive pressure mechanical ventilation was made by a Shinano respirator (SN-480–4) and an open-heart operation was done at the level of the left 4th–5th ribs. The rats received intramuscular injections of penicillin sodium (0.8 mg/g) to prevent infection. Myocardial ischemia was induced by a slipknot (4–0 silk suture) around the LAD about 2–3 mm near its origin. After 30-min ischemia, the slipknot was loosened to restore normal circulation for reperfusion ([28]). […] In the same group, heart surgery was performed without LAD artery occlusion.
The biodistribution of radiopeptide among tissues was measured by sacrifice of rats for each elected interval (30, 60, 180, and 360 min) post-injection. Various tissues, including heart, bone, kidneys, muscle, salivary glands, spleen, and intestines, were removed immediately and rinsed with saline solution to clean their residual blood. Moreover, blood samples for monitoring radioactivity were taken from the heart by a heparin-impregnated syringe after sacrificing. The percentage of injected activity per gram (%ID/g) for different organs was measured by dividing the activity of each organ per decayed total injected activity and mass of each organ. Moreover, in ischemic rats, 100 μg unlabeled peptide was co-injected with radiolabeled peptide to analyze the in vivo blocking test.

[3] = male, Wistar, rat, blood, iv, 20 MBq, total radioactivity
[4] = male, Wistar, rat, bone, iv, 20 MBq, total radioactivity
[5] = male, Wistar, rat, heart, iv, 20 MBq, total radioactivity
[6] = male, Wistar, rat, intestines, iv, 20 MBq, total radioactivity
[7] = male, Wistar, rat, ischemic heart / lung, iv, 20 MBq, total radioactivity
[8] = male, Wistar, rat, ischemic heart, iv, 20 MBq, total radioactivity
[9] = male, Wistar, rat, kidneys, iv, 20 MBq, total radioactivity
[10] = male, Wistar, rat, liver, iv, 20 MBq, total radioactivity
[11] = male, Wistar, rat, lung, iv, 20 MBq, total radioactivity
[12] = male, Wistar, rat, muscle, iv, 20 MBq, total radioactivity
[13] = male, Wistar, rat, salivary gland and thyroid, iv, 20 MBq, total radioactivity
[14] = male, Wistar, rat, spleen, iv, 20 MBq, total radioactivity
[15] = male, Wistar, rat, stomach, iv, 20 MBq, total radioactivity

CC(C)C[C@H](NC(=O)[C@H](Cc1ccccc1)NC(=O)[C@H](CCCCNC(=O)c1ccc(/N=N/c2ccc(N(C)C)cc2)cc1)NC(=O)[C@H](CCC(=O)O)NC(=O)[C@H](CC(C)C)NC(=O)[C@H](CCC(N)=O)NC(=O)[C@H](CCC(=O)O)NC(=O)[C@H](CCC(=O)O)NC(=O)CN1CCN(CC(=O)O)CCN(CC(=O)O)CCN(CC(=O)O)CC1)C(=O)N[C@@H](CC(N)=O)C(=O)N[C@@H](CO)C(=O)N[C@@H](CO)C(=O)O [99mTc-DOTA-(Lys-Dabcyl6,Phe7)-ARA-290, metal not drawn] ({DOTA}-EEQLEK(X1)FLNSS-OH; C-terminus assumed)
remaining at 4 h (in vitro): 94%
remaining at 6 h (in vitro): 93%
saline stability of radiopeptide (radiochemical purity remaining) [1]: 95%
scintigraphy: ischemic region uptake (cardiac ischemic region; cardiac ischemic rats, planar images at 30 and 90 min post-injection): considerable ischemic region uptake
scintigraphy: cardiac accumulation (cardiac ischemic region; normal rat, 30 min post-injection): not detectable
binding to hypoxic cells relative to normoxic cells ([2]; hypoxia 2% O2 vs normoxia 20% O2, 1 hr): 3 fold
binding to hypoxic cells relative to normoxic cells ([2]; hypoxia 2% O2 vs normoxia 20% O2, 4 hr): ~5 fold
binding to hypoxic cells in blocking test ([2]; hypoxic H9c2 cells, 50 mol excess of unlabeled peptide 30 min before radiopeptide): the same result was obtained for the normoxic cells
binding affinity to H9c2 cells under normoxic situations ([2]; normoxic 20% O2, H9c2 cells): very low
Isch heart/Th ratio (in vivo; 60 min p.i., block with 100 μg unlabeled peptide, ischemic rats): 1.04
Isch heart/Lung ratio (in vivo; 180 min p.i., ischemic rats): 2.61
Isch heart/Th ratio (in vivo; 180 min p.i., ischemic rats): 4.68
Isch heart/Th ratio (in vivo; 360 min p.i., ischemic rats): 6.01
tissue uptake at 0.5 h (in vivo; [3]): 1.52 ± 0.29 %ID/g
tissue uptake at 1 h (in vivo; [3]): 0.96 ± 0.16 %ID/g
tissue uptake at 3 h (in vivo; [3]): 0.44 ± 0.28 %ID/g
tissue uptake at 6 h (in vivo; [3]): 0.12 ± 0.87 %ID/g
tissue uptake at 0.5 h (in vivo; [4]): 0.75 ± 0.41 %ID/g
tissue uptake at 1 h (in vivo; [4]): 0.53 ± 0.21 %ID/g
tissue uptake at 3 h (in vivo; [4]): 0.32 ± 0.21 %ID/g
tissue uptake at 6 h (in vivo; [4]): 0.16 ± 0.29 %ID/g
tissue uptake at 0.5 h (in vivo; [5]): 0.62 ± 0.15 %ID/g
tissue uptake at 1 h (in vivo; [5]): 0.31 ± 0.18 %ID/g
tissue uptake at 3 h (in vivo; [5]): 0.21 ± 0.32 %ID/g
tissue uptake at 6 h (in vivo; [5]): 0.14 ± 0.23 %ID/g
tissue uptake at 0.5 h (in vivo; [6]): 1.73 ± 0.1 %ID/g
tissue uptake at 1 h (in vivo; [6]): 3.22 ± 0.78 %ID/g
tissue uptake at 3 h (in vivo; [6]): 2.89 ± 0.08 %ID/g
tissue uptake at 6 h (in vivo; [6]): 2.35 ± 0.25 %ID/g
tissue to tissue ratio at 0.5 h (in vivo; [7]): 3.65
tissue to tissue ratio at 1 h (in vivo; [7]): 4.31
tissue to tissue ratio at 6 h (in vivo; [7]): 3.37
tissue uptake at 0.5 h (in vivo; [8]): 3.44 ± 0.32 %ID/g
tissue uptake at 1 h (in vivo; [8]): 3.28 ± 0.52 %ID/g
tissue uptake at 3 h (in vivo; [8]): 1.36 ± 0.44 %ID/g
tissue uptake at 6 h (in vivo; [8]): 1.08 ± 0.94 %ID/g
tissue uptake at 0.5 h (in vivo; [9]): 10.6 ± 0.48 %ID/g
tissue uptake at 1 h (in vivo; [9]): 14.29 ± 0.01 %ID/g
tissue uptake at 3 h (in vivo; [9]): 8.58 ± 0.1 %ID/g
tissue uptake at 6 h (in vivo; [9]): 4.06 ± 0.43 %ID/g
tissue uptake at 0.5 h (in vivo; [10]): 3.55 ± 0.21 %ID/g
tissue uptake at 1 h (in vivo; [10]): 4.28 ± 0.15 %ID/g
tissue uptake at 3 h (in vivo; [10]): 3.49 ± 0.09 %ID/g
tissue uptake at 6 h (in vivo; [10]): 2.08 ± 0.28 %ID/g
tissue uptake at 0.5 h (in vivo; [11]): 0.94 ± 0.58 %ID/g
tissue uptake at 1 h (in vivo; [11]): 0.76 ± 0.77 %ID/g
tissue uptake at 3 h (in vivo; [11]): 0.52 ± 0.19 %ID/g
tissue uptake at 6 h (in vivo; [11]): 0.32 ± 0.22 %ID/g
tissue uptake at 0.5 h (in vivo; [12]): 0.53 ± 0.42 %ID/g
tissue uptake at 1 h (in vivo; [12]): 0.42 ± 0.84 %ID/g
tissue uptake at 3 h (in vivo; [12]): 0.25 ± 0.87 %ID/g
tissue uptake at 6 h (in vivo; [12]): 0.17 ± 0.31 %ID/g
tissue uptake at 0.5 h (in vivo; [13]): 0.79 ± 0.41 %ID/g
tissue uptake at 1 h (in vivo; [13]): 0.62 ± 0.15 %ID/g
tissue uptake at 3 h (in vivo; [13]): 0.29 ± 0.29 %ID/g
tissue uptake at 6 h (in vivo; [13]): 0.18 ± 0.81 %ID/g
tissue uptake at 0.5 h (in vivo; [14]): 2.56 ± 0.21 %ID/g
tissue uptake at 1 h (in vivo; [14]): 2.31 ± 0.12 %ID/g
tissue uptake at 3 h (in vivo; [14]): 1.16 ± 0.22 %ID/g
tissue uptake at 6 h (in vivo; [14]): 0.44 ± 0.29 %ID/g
tissue uptake at 0.5 h (in vivo; [15]): 0.88 ± 0.44 %ID/g
tissue uptake at 1 h (in vivo; [15]): 0.71 ± 0.31 %ID/g
tissue uptake at 3 h (in vivo; [15]): 0.54 ± 0.28 %ID/g
tissue uptake at 6 h (in vivo; [15]): 0.32 ± 0.19 %ID/g
